Here are results for 17 molecules from US20070258982A1 (Pfizer, published 2007).

B1: 367D04 scFv (non-germlined) (scFv)
scFv: EVQLVESGGGVVRPGGSLRLSCAASGFTFDDYGMNWVRQAPGKGLEWVSGVNWNGGTRDYAASVKGRFTISRDNAKNSLYLQMNSLRAEDTALYYCARGWYSGSPWSLGHWGRGTLVTVSSGGGGSGGGGSGGSGGGSGGSGGGSSGGGSGGGGSAQAVLTQPSSVSGSPGQSVTISCTGASGDVGAYNFVSWYQQHPGKTPKLIIYDVNKRPSGVSNRFSGSKSGNTASLTISRLQAEDESDYYCSSYTSRYTTEFGGGTKVTVLGAAAH
B2: 368D04 scFv (non-germlined) (scFv)
scFv: EVQLVESGGGVVRPGGSLRLSCAASGFTFDDYGMNWVRQAPGKGLEWVSGVNWNGGTRDYAASVKGRFTISRDNAKNSLYLQMNSLRAEDTALYYCARGWYSGAAWNMGYWGRGTLVTVSSGGGGSGGGGSGGSGGGSGGGGGGSGGGGSAQAVLTQPSSVSGSPGQSITISCTGASGDVGAYNFVSWYQQHPGKTPKLIIYDVNKRPSGVSNRFSGSKSGNTASLTISGLQAEDESDYYCASLVSDFSVVFGGGTKVTVLGAAAH
B3: 355B06 scFv (non-germlined) (scFv)
scFv: EVQLVQSGAEVKKPGASVKVSCQASGYTFTDYYMHWVRQAPGQGLEWVGWINPYTGSAFYAQKFRGRATMTRNTSINTAYMELSRLGSDDTAVYYCAREPEKFGESSGQLWGRGTMVTISSGGGGSGGGGSGGSGSAQAVLTQPSSVSGAPGQRVTISCTGSSSNIGPGYGVHWYQQLPGTAPKLLIYGDSNRPSGVPDRFSGSKSGTSASLAITGLQAEDEADYYCQSYDSGLSGYVFGTGTQLTVLSA
B4: 062G05 scFv (non-germlined) (scFv)
scFv: QVQLVESGAEVKKPGASVKVSCKASGYTFTSYGISWVRQAPGQGLEWMGWISAYTGNTNYAQKFQGRVTMTTDTSTSTAYMELRSLRSDDTAVYYCARDRGYYDAFDIWGQGTLVTVSSGGGGSGGGGSGGGGSDIQMTQSPSTLSASIGDRVTITCRASEGIYHWLAWYQQKPGKAPKLLIYKASSLASGAPSRFSGSGFGTDFTLTISSLQPDDFATYYCQQMGEWKAAFGGGTKLEIKRAAAH
B5: 062A09 scFv (non-germlined) (scFv)
scFv: QVQLVESGAEVKKPGASVKVSCKASGYTFTSYGISWVRQAPGQGLEWMGWVSAYTGNTNYAQKFQGRVTMTTDTSTSTAYMELRGLRSDDTAVYYCARDRGYYDAYDIWGQGTLVTVSSGGGGSGGGGSGGGGSDIQMTQSPSTLSASIGDRVTITCRASEGIYHWLAWYQQKPGKAPKLLIYKASSLASGAPSRFSGSGFGTDFTLTISSLQPDDFATYYCQQMGEYNATIGGGTKLEIKRAAAH
B6: 166G05 scFv (non-germlined) (scFv)
scFv: EVQLVQSGAEVKKPGASVKVSCQASGYTFSDYYIHWVRQTPGQGFEWMGWVNPDTGGTRYAQKFQGWVTMTRDMSNTTAYMELPRLRDDDTAVYYCARDLTGFDPFDIWGQGTLVTVSSGGGGSGGGGSGGGGSAQSVLTQPPSVSVAPGKTATITCGGNNFRNKRVHWYQQRPGQAPVLVIYYDSDRPSGIPERFSGSRSGNTATLTISRVEAGDEADFYCQVWDFLTDSGSFGGGTKLTVLGAAAH
B7: 166B06 scFv (non-germlined) (scFv)
scFv: EVQLVQSGAEVKKPGASVKVSCQASGYTFSDYYIHWVRQTPGQGFEWMGWVNPDTGGTRYAQKFQGWVTMTRDMSNTTAYMELPRLRDDDTAVYYCARDLTGFDPFDIWGQGTLVTVSSGGGSSGGGGSGGGGSAQSVLTQPPSVSVAPGKTATITCGGNNFRNKRVHWYQQRPGQAPVLVIYYDSDRPSGIPERFSGSRSGNTATLTISRVEAGDEADFYCQVWDLFNDNGVFGGGTKLTVLGAAAH
B8: 097D09 scFv (non-germlined) (scFv)
scFv: EVQLVESGGGLVTPGGSLRLSCAASGFTFSDYYMSWVRQAPGRGLEWVSAISGSGGSTYYADSVKGRITISRDNAKNSLYLQMSSLRSEDTAVYYCARGLWVWDPLDYWGRGTLVTVSSGGGGSGGGGSGGGGSDIQMTQSPSTLSASIGDRVTITCRASEGIYHWLAWYQQKPGKAPKLLIYKASSLASGAPSRFSGSGFGTDFTLTISSLQPDDFATYYCQQYSEFAWTFGGGTKLEIKRAAAH
B9: 355E04 scFv (non-germlined) (scFv)
scFv: QVQLVQSGAEVKKPGASVKVSCKASGYTFTHYYMHWVRQAPGQGLEWVGWINPYTGGAFYAQKFQGRVTMTRDTSINTAYMELSRLGSDDTAVYYCAREPEKFDSPNAEIWGRGTMVTISSEGGGSGGGGSGGSGSAQAVLTQPSSVSGAPGQRVTISCTGSSSNIGAGYGVHWYQQLPGTAPKLLIYGNSNRPSGVPDRFSGSKSGTSASLAITGLQAEDEADYYCQSYDSSLSGYVFGTGTQLTVLSA
B10: 087B03 scFv (non-germlined) (scFv)
scFv: EVQLVESGGGVVRPGGSLRLSCAASGFTFDDYGMNWVRQAPGKGLEWVSGVNWNGGTRDYAASVKGRFTISRDNAKNSLYLQMNSLRAEDTALYYCARGWYSGAAWNMGYWGRGTLVTVSSGGGGSGGGGSGGGGSAQAVLTQPSSVSGSPGQSITISCTGASGDVGAYNFVSWYQQHPGKTPKLIIYDVNKRPSGVSNRFSGSKSSNTASLTISGLQAEDESDYYCSSYTSTFSVVFGGGTKVTVLGAAAH
B11: 356A11 scFv (non-germlined) (scFv)
scFv: QVQLVQSGAEVKKPGASVKVSCKASGYTFTNYYMHWVRQAPGQGLEWVGWINPYTGSAFYAQKFRGRVTMTRDTSINTAYMELSRLGSDDTAVYYCAREPEKFDSDDSDVWGRGTMVTVSGGGGSSGGGGSGGSGSAQAVLTPPSVSGAPGQRVTISCTGSSSNIGAGYGVHWYQQLPGTAPKLIIYGDSSRPSGVPDRFSGSKSGTSASLAITGLQAEDEADYYCQSYDNSLSGYVFGTGTQLTVLSA
B12: 354A08 scFv (non-germlined) (scFv)
scFv: QVQLVQSGAEKKPGASVKVSCKASGYTFTDYYMHWVRQAPGQGLEWVGWINPYTGGAFYAQKFRGRVTMTRDTSINTAYMELSRLGSDDTAVYYCAREPERFGDSTGQVWGRGTMVTVSSGGGGSGGGGSGGSRSAQAVLTQPSSVSGAPRQRVTISCTGSSSNIGAGYGVHWYQQLPGTAPKLLIYGNSNRPSGVPDRFSGSKSGTSASLAITGLQAEDEADYYCYHWDKEQSGYVFGTGTQLTVLSA
B13: 375G06 scFv (non-germlined) (scFv)
scFv: EVQLVQSGAEVKKPGASVKVSCQASGYTFSDYYIHWVRQTPGQGFEWMGWVNPDTGGTRYAQKFQGWVTMTRDMSNTTAYMELPRLRDDDTAVYYCARDLTGYDYYDRWGQGTLVTVSSGGGGSGGGGSGGGGGGSGGGGGGSGGGGSAQSVLTQPPSMSVAPGKTATITCGGNNFRNKRVHWYQQRPGQAPVLVIYYDSDRPSGIPERFSGSRSGNTATLTISRVEAGDEADFYCQVWDFLADEAMFGGGTKLTVLGAAAH
B14: 166B06 IgG (non-germlined) (antibody, V domains shown)
VH: EVQLVQSGAEVKKPGASVKVSCQASGYTFSDYYIHWVRQTPGQGFEWMGWVNPDTGGTRYAQKFQGWVTMTRDMSNTTAYMELPRLRDDDTAVYYCARDLTGFDPFDIWGQGTLVTVSS
VL: QSVLTQPPSVSVAPGKTATITCGGNNFRNKRVHWYQQRPGQAPVLVIYYDSDRPSGIPERFSGSRSGNTATLTISRVEAGDEADFYCQVWDLFNDNGVFGGGTKLTVLG
B15: 166G05 IgG (non-germlined) (antibody, V domains shown)
VH: EVQLVQSGAEVKKPGASVKVSCQASGYTFSDYYIHWVRQTPGQGFEWMGWVNPDTGGTRYAQKFQGWVTMTRDMSNTTAYMELPRLRDDDTAVYYCARDLTGFDPFDIWGQGTLVTVSS
VL: QSVLTQPPSVSVAPGKTATITCGGNNFRNKRVHWYQQRPGQAPVLVIYYDSDRPSGIPERFSGSRSGNTATLTISRVEAGDEADFYCQVWDFLTDSGSFGGGTKLTVLG
B16: 062A09 IgG (non-germlined) (antibody, V domains shown)
VH: QVQLVESGAEVKKPGASVKVSCKASGYTFTSYGISWVRQAPGQGLEWMGWVSAYTGNTNYAQKFQGRVTMTTDTSTSTAYMELRGLRSDDTAVYYCARDRGYYDAFDIWGQGTLVTVSS
VL: DIQMTQSPSTLSASIGDRVTITCRASEGIYHWLAWYQQKPGKAPKLLIYKASSLASGAPSRFSGSGFGTDFTLTISSLQPDDFATYYCQQMGEYNATIGGGTKLEIKR
B17: 376B10 scFv (non-germlined) (scFv)
scFv: EVQLVQSGAEVKKPGASVKVSCQASGYTFSDYYIHWVRQTPGQGFEWMGWVNPDTGGTRYAQKFQGWVTMTRDMSNTTAYMELPGLRDDDTAVYYCARDLTGYDQYTAWGQGTLVTVSSGGGGSGGGGSGGGGSAQSVLTQPPSVSVAPGKTATITCGGNNFRNKRVHWYQQRPGQAPVLVIYYDSDRPSGIPERFSGSRSGNTATLTISRVEAGDEADFYCSTFDPFTDRPLFGGGTKLTVLGAAAH

For this experiment, the target named is T1, human IL-22 (human, UniProt Q9GZX6 34-179).
T1 sequence: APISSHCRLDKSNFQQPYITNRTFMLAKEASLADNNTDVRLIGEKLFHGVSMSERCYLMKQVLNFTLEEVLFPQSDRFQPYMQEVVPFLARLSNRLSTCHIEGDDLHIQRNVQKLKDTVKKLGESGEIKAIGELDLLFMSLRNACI
Briefly: cell-based or functional assay.
On to B1, for which the “IC50 of scFv (pM) in BaF3-IL-22 proliferation assay” value (“IC50 of scFv (pM)” for short) is 160 pM.

In the case of B2, the “IC50 of scFv (pM)” value came to 186 pM.

For B3, the “IC50 of scFv (pM)” value is 183 pM.

For B4, the “IC50 of scFv (pM)” value stood at 182 pM.

For B5, the “IC50 of scFv (pM)” value stood at 267 pM.

On to B6, for which the “IC50 of scFv (pM)” value is 204 pM.

In the case of B7, the “IC50 of scFv (pM)” value turned out to be 460 pM.

As to B8, the “IC50 of scFv (pM)” value stood at 298 pM.

In the case of B9, the “IC50 of scFv (pM)” value was 192 pM.

B10: the “IC50 of scFv (pM)” value came out at 212 pM.

B11: the “IC50 of scFv (pM)” value came to 124 pM.

B12: the “IC50 of scFv (pM)” value is 219 pM.

As for B13, the “IC50 of scFv (pM)” value was 118 pM.

For B14, the “IC50 of IgG (pM) in BaF3-IL-22 proliferation assay” value (“IC50 of IgG (pM)” for short) stood at 71 pM.

Consider B15, for which the “IC50 of IgG (pM)” value turned out to be 97 pM.

On to B16, for which the “IC50 of IgG (pM)” value was 83 pM.

With B17, the “IC50 of scFv (pM)” value was 104 pM.
